Patent US20140162950A1

Target: integrin α3β1 on gastric cancer cells (MKN45, MKN45/CTGF, AGS) (human) (UniProt P26006)
Experiment: cell-based or functional assay

UniProt P26006, sequence (P26006 33-1051, chain 1 of 2): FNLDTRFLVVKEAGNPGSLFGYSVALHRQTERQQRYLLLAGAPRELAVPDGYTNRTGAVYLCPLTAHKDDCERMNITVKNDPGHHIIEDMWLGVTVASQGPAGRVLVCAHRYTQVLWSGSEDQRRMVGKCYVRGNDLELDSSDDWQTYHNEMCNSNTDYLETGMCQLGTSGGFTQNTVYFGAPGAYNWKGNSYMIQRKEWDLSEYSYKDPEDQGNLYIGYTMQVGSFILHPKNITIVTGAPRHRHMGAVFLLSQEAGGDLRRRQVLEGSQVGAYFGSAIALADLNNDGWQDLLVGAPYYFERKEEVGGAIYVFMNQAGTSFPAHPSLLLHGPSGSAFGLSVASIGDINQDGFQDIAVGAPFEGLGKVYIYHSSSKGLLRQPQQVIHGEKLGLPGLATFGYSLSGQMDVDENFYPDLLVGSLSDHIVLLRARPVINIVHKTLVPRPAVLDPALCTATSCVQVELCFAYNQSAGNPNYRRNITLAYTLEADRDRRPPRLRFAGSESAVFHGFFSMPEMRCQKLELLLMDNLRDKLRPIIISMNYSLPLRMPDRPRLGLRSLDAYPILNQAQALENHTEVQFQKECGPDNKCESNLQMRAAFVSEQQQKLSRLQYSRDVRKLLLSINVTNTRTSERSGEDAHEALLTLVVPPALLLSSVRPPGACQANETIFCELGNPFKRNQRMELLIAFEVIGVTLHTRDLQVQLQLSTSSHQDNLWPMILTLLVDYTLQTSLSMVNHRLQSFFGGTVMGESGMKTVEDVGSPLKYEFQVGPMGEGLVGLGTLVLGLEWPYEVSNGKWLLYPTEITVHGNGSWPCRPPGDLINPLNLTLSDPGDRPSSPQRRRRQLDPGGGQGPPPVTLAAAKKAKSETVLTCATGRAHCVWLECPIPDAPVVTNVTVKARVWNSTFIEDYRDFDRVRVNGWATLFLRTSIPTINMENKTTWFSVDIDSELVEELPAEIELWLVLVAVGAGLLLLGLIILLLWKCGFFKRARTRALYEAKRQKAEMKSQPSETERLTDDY
UniProt P26006, sequence (P05556 21-798, chain 2 of 2, further chain): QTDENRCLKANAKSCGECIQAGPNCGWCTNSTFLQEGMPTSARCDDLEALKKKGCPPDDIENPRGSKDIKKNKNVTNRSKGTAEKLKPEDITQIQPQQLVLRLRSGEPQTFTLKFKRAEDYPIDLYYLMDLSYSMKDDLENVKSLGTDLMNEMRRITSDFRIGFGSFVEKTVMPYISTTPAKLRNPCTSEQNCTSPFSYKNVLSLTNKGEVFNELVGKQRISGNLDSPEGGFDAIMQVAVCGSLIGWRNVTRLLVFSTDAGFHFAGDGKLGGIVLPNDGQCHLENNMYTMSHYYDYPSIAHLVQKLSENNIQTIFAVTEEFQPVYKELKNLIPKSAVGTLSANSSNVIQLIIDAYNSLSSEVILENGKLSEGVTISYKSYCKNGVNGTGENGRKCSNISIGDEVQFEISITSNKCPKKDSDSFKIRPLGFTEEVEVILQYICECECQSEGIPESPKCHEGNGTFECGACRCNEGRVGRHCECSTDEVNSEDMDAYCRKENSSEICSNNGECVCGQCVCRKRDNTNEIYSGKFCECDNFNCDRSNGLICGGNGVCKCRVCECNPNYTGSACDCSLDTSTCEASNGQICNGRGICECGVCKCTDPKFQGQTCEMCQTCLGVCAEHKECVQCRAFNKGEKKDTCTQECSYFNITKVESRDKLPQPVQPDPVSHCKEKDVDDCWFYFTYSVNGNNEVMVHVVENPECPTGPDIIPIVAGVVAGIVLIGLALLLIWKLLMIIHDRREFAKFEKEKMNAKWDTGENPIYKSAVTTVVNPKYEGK

adhesion inhibition (MKN45 cells, matrigel adhesion assay, 6 hours post treatment, 50 ng rCTGF): 50% | adhesion inhibition (MKN45 cells, matrigel adhesion assay, 6 hours post treatment, 100 ng rCTGF): 70% | adhesion inhibition (MKN45 cells, matrigel adhesion assay, 6 hours post treatment, 200 ng rCTGF): 75%
Substance: recombinant CTGF C terminal (CT) domain (from UniProt P29279 253-349) (ligand)
